Values quoted from earlier work, collected in article PMC12153800.

Target: FZD10 (Homo sapiens) (UniProt Q9ULW2)
Experiment: NanoBiT/BRET

Sequence of Wnt3a (P56704 19-352): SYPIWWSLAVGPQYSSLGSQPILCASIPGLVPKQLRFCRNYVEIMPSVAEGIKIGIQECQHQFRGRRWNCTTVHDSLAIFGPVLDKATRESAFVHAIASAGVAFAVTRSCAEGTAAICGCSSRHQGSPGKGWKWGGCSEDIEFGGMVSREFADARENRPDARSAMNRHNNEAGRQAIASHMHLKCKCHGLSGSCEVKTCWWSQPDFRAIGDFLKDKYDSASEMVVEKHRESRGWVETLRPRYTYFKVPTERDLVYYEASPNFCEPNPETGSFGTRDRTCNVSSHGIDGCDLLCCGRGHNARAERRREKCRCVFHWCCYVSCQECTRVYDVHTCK
Sequence of FZD10 (Homo sapiens) (Q9ULW2 21-581): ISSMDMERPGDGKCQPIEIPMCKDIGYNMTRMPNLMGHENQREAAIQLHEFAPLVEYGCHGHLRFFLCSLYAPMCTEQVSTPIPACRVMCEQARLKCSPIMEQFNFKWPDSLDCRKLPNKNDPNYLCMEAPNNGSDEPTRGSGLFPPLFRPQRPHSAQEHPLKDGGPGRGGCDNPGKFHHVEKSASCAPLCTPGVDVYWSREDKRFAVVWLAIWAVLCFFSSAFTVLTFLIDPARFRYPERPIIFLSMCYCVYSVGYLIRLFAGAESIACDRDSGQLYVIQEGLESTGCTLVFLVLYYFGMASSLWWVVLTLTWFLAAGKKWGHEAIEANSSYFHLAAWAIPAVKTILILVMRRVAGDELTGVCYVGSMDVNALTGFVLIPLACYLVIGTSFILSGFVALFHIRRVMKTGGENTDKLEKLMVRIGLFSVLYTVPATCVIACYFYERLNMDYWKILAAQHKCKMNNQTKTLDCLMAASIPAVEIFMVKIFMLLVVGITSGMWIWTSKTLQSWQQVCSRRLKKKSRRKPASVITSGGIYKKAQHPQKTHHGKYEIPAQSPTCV

Kd: 4.3 nM
Substance: Wnt3a (from UniProt P56704)
